Test results from PMC8350011, “Interactions between semaphorins and plexin–neuropilin receptor complexes in the membranes of live cells” (The Journal of Biological Chemistry, 2021).

What was measured:
Assay in all cases: PIE-FCCS (pulsed-interleaved excitation fluorescence cross-correlation spectroscopy); single live Cos-7 cells co-expressing eGFP and mCherry fusions, peripheral membrane, no exogenous ligand; 85 to 1245 molecules/μm^2; fraction correlated (fc): median below 0.09 monomer, 0.09-0.17 dimer, above 0.17 higher oligomers (homotypic)
[1] = biological target: the molecule itself
plexin A4ΔSema = biological target: T1, plexin A4ΔSema (human, UniProt Q9HCM2 24-1894, deletes residues 39 to 506); conditions: partners not purified
T1 construct: also called plexin A4ΔSema-eGFP; plexin A4ΔSema-mCh; source: Cos-7, transiently transfected, in the membrane of live cells
T1 sequence (looked up): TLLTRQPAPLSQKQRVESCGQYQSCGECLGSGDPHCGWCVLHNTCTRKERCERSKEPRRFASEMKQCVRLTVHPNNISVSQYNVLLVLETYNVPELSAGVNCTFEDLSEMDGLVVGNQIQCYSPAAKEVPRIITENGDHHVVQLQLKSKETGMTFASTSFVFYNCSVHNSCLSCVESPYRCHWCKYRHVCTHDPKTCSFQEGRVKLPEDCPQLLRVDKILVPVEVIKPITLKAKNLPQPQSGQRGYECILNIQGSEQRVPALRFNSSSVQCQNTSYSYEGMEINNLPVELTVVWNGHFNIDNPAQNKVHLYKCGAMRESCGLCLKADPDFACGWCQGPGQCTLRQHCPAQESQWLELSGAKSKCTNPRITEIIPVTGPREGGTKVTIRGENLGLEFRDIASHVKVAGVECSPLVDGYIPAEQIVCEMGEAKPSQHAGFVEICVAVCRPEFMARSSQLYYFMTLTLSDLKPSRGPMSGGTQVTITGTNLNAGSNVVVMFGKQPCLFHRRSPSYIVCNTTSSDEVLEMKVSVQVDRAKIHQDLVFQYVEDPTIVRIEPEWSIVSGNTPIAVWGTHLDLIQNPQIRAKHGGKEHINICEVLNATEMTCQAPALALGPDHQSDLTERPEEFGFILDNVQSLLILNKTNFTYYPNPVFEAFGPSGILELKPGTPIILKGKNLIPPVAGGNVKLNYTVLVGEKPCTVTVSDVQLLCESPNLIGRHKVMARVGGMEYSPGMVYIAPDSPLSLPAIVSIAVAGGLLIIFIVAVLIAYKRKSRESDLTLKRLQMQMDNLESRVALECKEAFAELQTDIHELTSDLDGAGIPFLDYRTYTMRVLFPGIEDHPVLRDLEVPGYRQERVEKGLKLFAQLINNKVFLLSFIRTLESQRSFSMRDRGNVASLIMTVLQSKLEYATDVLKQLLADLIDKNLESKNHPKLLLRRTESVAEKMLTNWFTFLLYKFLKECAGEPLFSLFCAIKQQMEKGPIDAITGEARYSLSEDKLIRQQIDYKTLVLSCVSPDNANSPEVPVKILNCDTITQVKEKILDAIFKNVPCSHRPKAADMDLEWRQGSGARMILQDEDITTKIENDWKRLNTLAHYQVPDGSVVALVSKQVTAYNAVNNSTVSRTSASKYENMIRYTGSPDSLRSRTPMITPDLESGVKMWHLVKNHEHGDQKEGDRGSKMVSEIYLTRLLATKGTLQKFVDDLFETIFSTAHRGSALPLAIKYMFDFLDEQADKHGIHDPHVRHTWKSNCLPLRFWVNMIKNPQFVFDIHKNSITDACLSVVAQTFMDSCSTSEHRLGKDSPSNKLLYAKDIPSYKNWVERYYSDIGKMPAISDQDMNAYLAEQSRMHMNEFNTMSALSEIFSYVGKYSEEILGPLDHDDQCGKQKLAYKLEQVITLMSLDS

plexin A4 = biological target: T2, plexin A4 (human, UniProt Q9HCM2 24-1894); conditions: partners not purified
T2 construct: Two constructs (eGFP and mCherry fusions); The N1 vectors probably put the fluorescent protein at the C-terminus; also called plexin A4-eGFP; plexin A4-mCh; source: Cos-7, transiently transfected, in the membrane of live cells

median fraction correlated (fc) (plexin A4ΔSema): 0.23
median fraction correlated (fc) (plexin A4): 0.08
B1: plexin A2 (receptor, human, UniProt O75051 35-1894, looked up)
chain: MPQFSTFHSENRDWTFNHLTVHQGTGAVYVGAINRVYKLTGNLTIQVAHKTGPEEDNKSCYPPLIVQPCSEVLTLTNNVNKLLIIDYSENRLLACGSLYQGVCKLLRLDDLFILVEPSHKKEHYLSSVNKTGTMYGVIVRSEGEDGKLFIGTAVDGKQDYFPTLSSRKLPRDPESSAMLDYELHSDFVSSLIKIPSDTLALVSHFDIFYIYGFASGGFVYFLTVQPETPEGVAINSAGDLFYTSRIVRLCKDDPKFHSYVSLPFGCTRAGVEYRLLQAAYLAKPGDSLAQAFNITSQDDVLFAIFSKGQKQYHHPPDDSALCAFPIRAINLQIKERLQSCYQGEGNLELNWLLGKDVQCTKAPVPIDDNFCGLDINQPLGGSTPVEGLTLYTTSRDRMTSVASYVYNGYSVVFVGTKSGKLKKIRADGPPHGGVQYEMVSVLKDGSPILRDMAFSIDQRYLYVMSERQVTRVPVESCEQYTTCGECLSSGDPHCGWCALHNMCSRRDKCQQAWEPNRFAASISQCVSLAVHPSSISVSEHSRLLSLVVSDAPDLSAGIACAFGNLTEVEGQVSGSQVICISPGPKDVPVIPLDQDWFGLELQLRSKETGKIFVSTEFKFYNCSAHQLCLSCVNSAFRCHWCKYRNLCTHDPTTCSFQEGRINISEDCPQLVPTEEILIPVGEVKPITLKARNLPQPQSGQRGYECVLNIQGAIHRVPALRFNSSSVQCQNSSYQYDGMDISNLAVDFAVVWNGNFIIDNPQDLKVHLYKCAAQRESCGLCLKADRKFECGWCSGERRCTLHQHCTSPSSPWLDWSSHNVKCSNPQITEILTVSGPPEGGTRVTIHGVNLGLDFSEIAHHVQVAGVPCTPLPGEYIIAEQIVCEMGHALVGTTSGPVRLCIGECKPEFMTKSHQQYTFVNPSVLSLNPIRGPESGGTMVTITGHYLGAGSSVAVYLGNQTCEFYGRSMSEIVCVSPPSSNGLGPVPVSVSVDRAHVDSNLQFEYIDDPRVQRIEPEWSIASGHTPLTITGFNLDVIQEPRIRVKFNGKESVNVCKVVNTTTLTCLAPSLTTDYRPGLDTVERPDEFGFVFNNVQSLLIYNDTKFIYYPNPTFELLSPTGVLDQKPGSPIILKGKNLCPPASGGAKLNYTVLIGETPCAVTVSETQLLCEPPNLTGQHKVMVHVGGMVFSPGSVSVISDSLLTLPAIVSIAAGGSLLLIIVIIVLIAYKRKSRENDLTLKRLQMQMDNLESRVALECKEAFAELQTDINELTSDLDRSGIPYLDYRTYAMRVLFPGIEDHPVLRELEVQGNGQQHVEKALKLFAQLINNKVFLLTFIRTLELQRSFSMRDRGNVASLIMTGLQGRLEYATDVLKQLLSDLIDKNLENKNHPKLLLRRTESVAEKMLTNWFAFLLHKFLKECAGEPLFMLYCAIKQQMEKGPIDAITGEARYSLSEDKLIRQQIEYKTLILNCVNPDNENSPEIPVKVLNCDTITQVKEKILDAVYKNVPYSQRPRAVDMDLEWRQGRIARVVLQDEDITTKIEGDWKRLNTLMHYQVSDRSVVALVPKQTSSYNIPASASISRTSISRYDSSFRYTGSPDSLRSRAPMITPDLESGVKVWHLVKNHDHGDQKEGDRGSKMVSEIYLTRLLATKGTLQKFVDDLFETLFSTVHRGSALPLAIKYMFDFLDEQADRHSIHDTDVRHTWKSNCLPLRFWVNVIKNPQFVFDIHKGSITDACLSVVAQTFMDSCSTSEHRLGKDSPSNKLLYAKDIPSYKSWVERYYADIAKLPAISDQDMNAYLAEQSRLHAVEFNMLSALNEIYSYVSKYSEELIGALEQDEQARRQRLAYKVEQLINAMSIES
notes: Two constructs (pEGFP-N1 and pmCh-N1, EcoR1 and Kpn1 sites); the N1 vectors probably put the fluorescent protein at the C-terminus; also called plexin A2-eGFP; plexin A2-mCh; source: Cos-7, transiently transfected, in the membrane of live cells
median fraction correlated (fc) [1]: 0.09
stoichiometry N [1]: 2
